Assay results taken from PMC5206705 (Scientific Reports, 2017).

Target: the molecule itself
Assay: SEC; preparative Superdex 200 in 50 mM Tris pH 8.0, 125 mM sodium chloride; elution at approximately 80 kDa against a 44 kDa monomer

B1: β-ketoacyl-acyl carrier protein synthase FabF from Listeria monocytogenes (enzyme, UniProt A0A0B8RFI6 1-413, looked up)
chain: MDKRRVVVTGIGAVTPIGNDAETSWENAKKGVNGVAKMTRLNPDDFPVKIAAELKDFDVEKYLEKKEARKMDRFTHYAIASAEMAVQDSGLVIDDSNANRVGVWIGSGIGGMETFETQYEIFLNRGHRRVSPFFVPMMIPDMGSGQVSIRFGAKGINSTTVTACATATNSIGDAFKVIERGDADAMITGGAEAPITKMSLAGFTANKALSLNPDPETACRPFDKDRDGFIIGEGAGIVILEEYEHAKARGAKIYAEIVGYGATGDAYHITAPAPNGEGAARAMKMAIDDAGLTPDKVDYINAHGTSTPYNDEYETQAIKTVFGDHAKKLAISSTKSMTGHTLGASGGIEAIFALLTIRDNIIAPTIHLKNQDEVCDLDYVPNEAREANVNVVISNSFGFGGHNATLVFKRIED
notes: FabF (β-ketoacyl-ACP synthase II) of Listeria monocytogenes, amplified from genomic DNA ATCC 19115D-5 with primers from the start to the stop codon; the construct encoded the full length protein; monomer about 44 kDa; Vector pMCSG21 with a TEV site; a few residues of the site may remain at the N-terminus after cleavage (surmise); also called LmFabF; β-ketoacyl-ACP synthase II; source: E. coli …
stoichiometry N: 2
